Patent publication US20250066499A1 (SUNSHINE GUOJIAN PHARMACEUTICAL SHANGHAI, published 2025)

Key:
[1] = biological target: T1, CD73-ND-V144A (human, UniProt P21589 27-317); assay: ELISA; decline multiple of Top against CD73-ND
T1 construct: Alanine mutant of CD73-ND
T1 sequence: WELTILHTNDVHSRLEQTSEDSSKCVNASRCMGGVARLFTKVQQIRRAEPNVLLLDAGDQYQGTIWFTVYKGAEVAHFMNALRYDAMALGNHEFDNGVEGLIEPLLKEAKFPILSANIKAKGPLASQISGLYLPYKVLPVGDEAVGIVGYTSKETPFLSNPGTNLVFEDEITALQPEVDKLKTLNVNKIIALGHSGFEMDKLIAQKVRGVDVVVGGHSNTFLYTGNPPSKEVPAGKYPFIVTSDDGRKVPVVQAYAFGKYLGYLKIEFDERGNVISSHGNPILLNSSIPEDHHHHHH
Description: (§1) The ELISA plates were coated with SA protein diluted to 1.5 μg/mL in coating buffer (50 mM carbonate coating buffer, pH 9.6) and incubated overnight at 4° C. The supernatant was discarded, and the plates were washed three times with PBST. Then, 5% skimmed milk powder prepared with PBS was added for blocking and the plates were incubated for 2 h at 37° C. After washing the plates once with PBST, CD73-biotin protein (prepared by biotinylating CD73-His protein according to the EZ-Link NHS-Biotin Reagent instructions) was diluted to 0.5 μg/mL and added at 100 μL/well for incubation at room temperature for 1 h. The plates were washed three times with PBST, and the prepared murine-derived monoclonal antibodies against human CD73 were serially diluted with 1% BSA buffer prepared with PBST and added to the ELISA plates at 100 μl/well. The plates were incubated at 37° C. for 1 h. After washing the plates three times with PBST, HRP-labeled goat anti-mouse IgG secondary antibody was added and the plates were incubated for 30 min at 37° C. After washing the plates three times with PBST, the residual droplets were patted dry on absorbent paper as much as possible. Then, 100 μl of TMB color developing solution was added to each well, and the plates were incubated in the dark at room temperature for 5 min for color development. Subsequently, 50 μl of 2M H₂SO₄ stop solution was added to each well to terminate the substrate reaction. The OD values were read at 450 nm using a multimode microplate reader to analyze the binding ability of the tested antibodies to the target antigen human CD73-His.
(§2) Referring to the experimental method in Example 3, the affinity of 48A11-HuV33 for various mutant proteins of CD73-ND was determined. The SA protein was diluted to 1 μg/mL for coating the ELISA plates, and the biotinylated CD73 protein (CD73-biotin) was used at a concentration of 0.1 μg/mL.

[2] = biological target: T2, CD73-ND-K180A (human, UniProt P21589 27-317); assay: ELISA; decline multiple of Top against CD73-ND
T2 construct: Alanine mutant of CD73-ND
T2 sequence: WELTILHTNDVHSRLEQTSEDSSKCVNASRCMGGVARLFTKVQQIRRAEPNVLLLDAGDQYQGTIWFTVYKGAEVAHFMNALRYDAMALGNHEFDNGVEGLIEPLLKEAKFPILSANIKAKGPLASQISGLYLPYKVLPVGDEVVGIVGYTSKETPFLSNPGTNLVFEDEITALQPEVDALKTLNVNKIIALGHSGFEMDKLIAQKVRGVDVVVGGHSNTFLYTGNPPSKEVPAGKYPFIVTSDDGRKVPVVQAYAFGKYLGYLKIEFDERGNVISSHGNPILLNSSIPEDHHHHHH
Description: as §1, §2

[3] = biological target: T3, CD73-ND-K182A (human, UniProt P21589 27-317); assay: ELISA; decline multiple of Top against CD73-ND
T3 construct: Alanine mutant of CD73-ND
T3 sequence: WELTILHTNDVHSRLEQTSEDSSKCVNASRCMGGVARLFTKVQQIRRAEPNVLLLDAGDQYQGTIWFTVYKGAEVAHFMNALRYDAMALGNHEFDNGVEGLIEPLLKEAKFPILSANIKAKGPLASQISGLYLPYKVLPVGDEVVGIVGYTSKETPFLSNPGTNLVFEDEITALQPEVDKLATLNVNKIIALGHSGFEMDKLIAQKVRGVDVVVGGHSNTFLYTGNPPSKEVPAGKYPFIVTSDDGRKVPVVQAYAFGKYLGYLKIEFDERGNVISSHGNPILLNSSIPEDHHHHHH
Description: as §1, §2

[4] = biological target: T4, CD73-ND-Y132A (human, UniProt P21589 27-317); assay: ELISA; decline multiple of EC50 against CD73-ND
T4 construct: Alanine mutant of CD73-ND
T4 sequence: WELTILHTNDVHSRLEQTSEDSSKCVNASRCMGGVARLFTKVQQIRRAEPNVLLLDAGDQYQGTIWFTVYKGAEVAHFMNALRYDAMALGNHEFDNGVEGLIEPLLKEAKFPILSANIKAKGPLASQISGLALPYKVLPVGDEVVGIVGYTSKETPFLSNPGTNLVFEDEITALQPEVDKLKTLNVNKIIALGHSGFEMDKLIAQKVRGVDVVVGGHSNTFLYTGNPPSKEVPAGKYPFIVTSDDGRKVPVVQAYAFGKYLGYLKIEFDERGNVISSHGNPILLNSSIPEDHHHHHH
Description: as §1, §2

[5] = biological target: T5, CD73-ND-K136A (human, UniProt P21589 27-317); assay: ELISA; decline multiple of EC50 against CD73-ND
T5 construct: Alanine mutant of CD73-ND
T5 sequence: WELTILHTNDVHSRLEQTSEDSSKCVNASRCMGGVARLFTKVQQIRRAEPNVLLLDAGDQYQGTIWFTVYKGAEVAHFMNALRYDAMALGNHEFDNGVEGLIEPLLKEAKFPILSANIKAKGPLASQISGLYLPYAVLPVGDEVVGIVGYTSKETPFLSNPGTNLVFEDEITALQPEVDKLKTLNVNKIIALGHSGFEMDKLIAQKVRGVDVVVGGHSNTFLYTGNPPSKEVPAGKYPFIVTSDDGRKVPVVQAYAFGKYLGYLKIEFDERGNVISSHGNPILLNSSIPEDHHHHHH
Description: as §1, §2

[6] = biological target: T6, CD73-ND-his (human, UniProt P21589 27-317); assay: ELISA; decline multiple of EC50 against CD73-ND
T6 construct: Biotinylated and captured on streptavidin in the ELISA
T6 sequence: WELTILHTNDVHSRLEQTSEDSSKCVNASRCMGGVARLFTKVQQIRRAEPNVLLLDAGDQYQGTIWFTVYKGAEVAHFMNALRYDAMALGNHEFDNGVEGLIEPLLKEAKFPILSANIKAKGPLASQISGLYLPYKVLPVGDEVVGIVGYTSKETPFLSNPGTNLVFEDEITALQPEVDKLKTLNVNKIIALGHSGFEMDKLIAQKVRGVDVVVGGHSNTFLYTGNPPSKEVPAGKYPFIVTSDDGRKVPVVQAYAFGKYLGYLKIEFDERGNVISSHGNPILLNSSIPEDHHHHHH
Description: as §1, §2

B1: 48A11-HuV33 (antibody, human IgG4, V domains shown)
VH: QVQLVQSGAEVKKPGASVKVSCKASGYTFTSYWMHWVRQAPGQGLEWIGEINPSIGRTNYNEKFKSRVTLTRDTSTSTAYMELSSLRSEDTAVYYCARRVYGTMDYWGQGTLVTVSS
VL: DIQMTQSPSSLSASVGDRVTITCKASQDINSYLSWFQQKPGKSPKLLIYRANIWVDGVPSRFSGSGSGQDYTFTISSLQPEDIATYYCLQYDELYTFGQGTKVEIK
notes: Humanized
Ratio(Top) [1]: 1.2 fold | Ratio(Top) [2]: 1.1 fold | Ratio(Top) [3]: 1 fold | Ratio(EC50) [4]: 69.2 fold | Ratio(EC50) [5]: 1 fold | Ratio(EC50) [6]: 1 fold
